Assay results published in the supplement of paper PMC10598134.
± gives the standard deviation.

Test: collision cross section of modified peptide (TIMS, N2, iRT-aligned); higher = larger / more extended gas-phase ion
Procedure, shortened: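 Synthetic peptide pools (~100 fmol/µL in 2% acetonitrile/0.1% formic acid, iRT standard spiked 1:40) were separated on a 120-min nanoflow C18 gradient at 60 °C. They were analysed on a timsTOF Pro/HT (dda-PASEF, nitrogen, ~2.4 mbar) and identified with MaxQuant. 1/K0 was calibrated with three reference ions and aligned run-wise to the median iRT peptide deviation. Collision cross section came from the Mason-Schamp equation, averaging 1–3 technical replicates of the most abundant feature per charge state.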

[1] = charge state: 2, modification: Nitro (Y)
[2] = charge state: 3, modification: Nitro (Y)
[3] = charge state: 2, modification: Phospho (Y)
[4] = charge state: 3, modification: Phospho (Y)
[5] = charge state: 2, modification: Citrullination (R)
[6] = charge state: 3, modification: Methyl (R)
[7] = charge state: 3, modification: Citrullination (R)

Question: Which results are given for “YIEIYVQKVNPSR [_YIEIYVQK(Dimethyl (K))VNPSR_]”?
Answer: collision cross section (charge state: 2, modification: Dimethyl (K)): 441.4 ± 1.2 Å²; collision cross section (charge state: 3, modification: Dimethyl (K)): 503.81 ± 1.6 Å²

Question: For “YIEIYVQKVNPSR [_YIEIYVQK(GlyGly (K))VNPSR_]”, which collision cross section (charge state: 2, modification: GlyGly (K)) is on record?
Answer: 453.07 ± 1.4 Å²

Question: What about the collision cross section (charge state: 3, modification: GlyGly (K)) of the same substance?
Answer: 515.19 ± 0.35 Å²

Question: For “YIEIYVQKVNPSR [_YIEIYVQK(Methyl (K))VNPSR_]”, which collision cross section (charge state: 2, modification: Methyl (K)) is on record?
Answer: 439.54 ± 1.7 Å²

Question: What about the collision cross section (charge state: 3, modification: Methyl (K)) of the same substance?
Answer: 505.56 ± 3.7 Å²

Question: With “YIEIYVQKVNPSR [_YIEIYVQK(Succinyl)VNPSR_]” as the substance, how does the collision cross section (charge state: 2, modification: Succinyl) read?
Answer: 436.15 Å²

Question: Which collision cross section (charge state: 2, modification: Trimethyl (K)) does the source give for “YIEIYVQKVNPSR [_YIEIYVQK(Trimethyl (K))VNPSR_]” here?
Answer: 446.57 Å²

Question: What about the collision cross section (charge state: 3, modification: Trimethyl (K)) of the same substance?
Answer: 499.16 ± 1.6 Å²

Question: What does the source list for YIGTGHADTTK [_Y(Nitro (Y))IGTGHADTTK_]?
Answer: collision cross section [1]: 358.04 ± 1.2 Å²; collision cross section [2]: 452.29 ± 0.83 Å²

Question: With “YIGTGHADTTK [_Y(Phospho (Y))IGTGHADTTK_]” as the substance, how does the collision cross section [3] read?
Answer: 372.65 ± 0.75 Å²

Question: With YILIPASQQPK [_Y(Nitro (Y))ILIPASQQPK_] as the substance, how does the collision cross section [1] read?
Answer: 382.12 ± 0.17 Å²

Question: With “YILIPASQQPK [_Y(Phospho (Y))ILIPASQQPK_]” as the substance, how does the collision cross section [3] read?
Answer: 405.41 ± 0.64 Å²

Question: With YLHDESGLNR [_Y(Nitro (Y))LHDESGLNR_] as the substance, how does the collision cross section [1] read?
Answer: 366.66 ± 0.46 Å²

Question: What about the collision cross section [2] of the same substance?
Answer: 429.41 ± 1.1 Å²

Question: Which collision cross section [3] does the source give for YLHDESGLNR [_Y(Phospho (Y))LHDESGLNR_] here?
Answer: 372.11 ± 0.77 Å²

Question: What about the collision cross section [4] of the same substance?
Answer: 460.83 ± 0.1 Å²

Question: With YRGDYDR [_YR(Citrullination (R))GDYDR_] as the substance, how does the collision cross section [5] read?
Answer: 333.6 ± 1.8 Å²

Question: For YRGDYDR [_YR(Methyl (R))GDYDR_], which collision cross section (charge state: 2, modification: Methyl (R)) is on record?
Answer: 328.99 ± 0.25 Å²

Question: What about the collision cross section [6] of the same substance?
Answer: 408.46 ± 0.36 Å²

Question: Which collision cross section [5] does the source give for “YSRGAGLGFSTAPNK [_YSR(Citrullination (R))GAGLGFSTAPNK_]” here?
Answer: 397.83 ± 0.22 Å²

Question: With “YSRGAGLGFSTAPNK [_YSR(Methyl (R))GAGLGFSTAPNK_]” as the substance, how does the collision cross section [6] read?
Answer: 478.19 ± 2.5 Å²

Question: Which collision cross section [7] does the source give for “YSSNLGNFNYEQRGAFR [_YSSNLGNFNYEQR(Citrullination (R))GAFR_]” here?
Answer: 530.01 Å²

Question: For “YSSNLGNFNYEQRGAFR [_YSSNLGNFNYEQR(Methyl (R))GAFR_]”, which collision cross section [6] is on record?
Answer: 534.33 ± 1.9 Å²

Question: Which results are given for “YSSSSIPEPFGSRGSPR [_YSSSSIPEPFGSR(Citrullination (R))GSPR_]”?
Answer: collision cross section [5]: 439.28 ± 0.2 Å²; collision cross section [7]: 523.88 Å²

Question: With “YSSSSIPEPFGSRGSPR [_YSSSSIPEPFGSR(Methyl (R))GSPR_]” as the substance, how does the collision cross section [6] read?
Answer: 522.38 ± 1.8 Å²

Question: For “YSTSGSSGLTTGK [_Y(Nitro (Y))STSGSSGLTTGK_]”, which collision cross section [1] is on record?
Answer: 371.62 ± 0.55 Å²

Question: For “YSTSGSSGLTTGK [_Y(Phospho (Y))STSGSSGLTTGK_]”, which collision cross section [3] is on record?
Answer: 375.26 ± 0.063 Å²

Question: For “YTAILNQIPSHSSSIR [_YTAILNQIP(Hydroxyproline)SHSSSIR_]”, which collision cross section (charge state: 2, modification: Hydroxyproline) is on record?
Answer: 473.92 ± 0.82 Å²

Question: What about the collision cross section (charge state: 3, modification: Hydroxyproline) of the same substance?
Answer: 518.79 ± 6.1 Å²

Question: For YTAQVDAEEK [_Y(Nitro (Y))TAQVDAEEK_], which collision cross section [1] is on record?
Answer: 358.81 ± 0.55 Å²

Question: For YTAQVDAEEK [_Y(Phospho (Y))TAQVDAEEK_], which collision cross section [3] is on record?
Answer: 361.18 ± 0.78 Å²

Question: For YTCSFCGK [_Y(Nitro (Y))TCSFCGK_], which collision cross section [1] is on record?
Answer: 334.4 ± 0.71 Å²

Question: For YTCSFCGK [_Y(Phospho (Y))TCSFCGK_], which collision cross section [3] is on record?
Answer: 336.46 ± 0.067 Å²

Question: With YTQVGPDHNR [_Y(Nitro (Y))TQVGPDHNR_] as the substance, how does the collision cross section [1] read?
Answer: 361.98 ± 1.1 Å²

Question: What about the collision cross section [2] of the same substance?
Answer: 411.69 ± 0.22 Å²

Question: With YTQVGPDHNR [_Y(Phospho (Y))TQVGPDHNR_] as the substance, how does the collision cross section [3] read?
Answer: 363.13 ± 0.064 Å²

Question: And the collision cross section [4]?
Answer: 430.78 Å²

Question: Which collision cross section [1] does the source give for YTTNNSSEQR [_Y(Nitro (Y))TTNNSSEQR_] here?
Answer: 355.01 ± 0.17 Å²

Question: Which collision cross section [3] does the source give for YTTNNSSEQR [_Y(Phospho (Y))TTNNSSEQR_] here?
Answer: 363.91 ± 0.65 Å²

Question: Which collision cross section [1] does the source give for YVGESEANIR [_Y(Nitro (Y))VGESEANIR_] here?
Answer: 357.77 ± 0.55 Å²

Question: For YVGESEANIR [_Y(Phospho (Y))VGESEANIR_], which collision cross section [3] is on record?
Answer: 370.09 ± 0.95 Å²

Question: With YVHADAPTNK [_Y(Nitro (Y))VHADAPTNK_] as the substance, how does the collision cross section [1] read?
Answer: 352.73 ± 0.72 Å²

Question: What about the collision cross section [2] of the same substance?
Answer: 417.54 ± 1.2 Å²

Question: Which collision cross section [3] does the source give for YVHADAPTNK [_Y(Phospho (Y))VHADAPTNK_] here?
Answer: 354.72 ± 0.065 Å²

Question: What about the collision cross section [4] of the same substance?
Answer: 420.4 ± 1 Å²
